Results as given in the supplement of paper PMC10598134.
± gives the standard deviation.

Test: collision cross section of modified peptide (TIMS, N2, iRT-aligned); higher = larger / more extended gas-phase ion
Summary of the method: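 Collision cross section was derived from the Mason-Schamp equation. Each value averages 1–3 technical replicates of the most abundant feature per charge state, measured on a timsTOF Pro/HT in dda-PASEF mode (nitrogen, ~2.4 mbar) after a 120-min nanoflow C18 gradient at 60 °C. Synthetic peptide pools (~100 fmol/µL in 2% acetonitrile/0.1% formic acid, iRT standard spiked 1:40) were identified with MaxQuant, and 1/K0 was calibrated with three reference ions and aligned run-wise to the median iRT peptide deviation.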

[1] = charge state: 3, modification: Methyl (K)
[2] = charge state: 2, modification: Methyl (K)
[3] = charge state: 2, modification: Formyl
[4] = charge state: 2, modification: Trimethyl (K)
[5] = charge state: 3, modification: Trimethyl (K)
[6] = charge state: 2, modification: Glutarylation
[7] = charge state: 3, modification: Glutarylation
[8] = charge state: 2, modification: Phospho (Y)
[9] = charge state: 2, modification: hydroxyisobutyryl
[10] = charge state: 3, modification: hydroxyisobutyryl

**Q.** For “SPPLPEHQKIPCNSAEPK [_SPPLPEHQK(Methyl (K))IPCNSAEPK_]”, which collision cross section [1] is on record?
**A.** 546.75 Å²

**Q.** What does the source list for “VGVEVPDVNIEGPEGKLK [_VGVEVPDVNIEGPEGK(Methyl (K))LK_]”?
**A.** collision cross section [2]: 459.11 ± 16 Å²; collision cross section [1]: 535.61 ± 7.1 Å²

**Q.** Which results are given for “GEVGAGAGPGAQAGPSAKR [_GEVGAGAGPGAQAGPSAK(Formyl)R_]”?
**A.** collision cross section [3]: 415.62 ± 0.18 Å²; collision cross section (charge state: 3, modification: Formyl): 470.58 ± 2.9 Å²

**Q.** Which collision cross section [4] does the source give for “LQEKVESAQSEQK [_LQEK(Trimethyl (K))VESAQSEQK_]” here?
**A.** 419.24 ± 2.2 Å²

**Q.** What about the collision cross section [5] of the same sequence?
**A.** 470.87 ± 1.8 Å²

**Q.** For SLKLNTAEDAK [_SLK(Propionyl)LNTAEDAK_], which collision cross section (charge state: 2, modification: Propionyl) is on record?
**A.** 376 ± 0.94 Å²

**Q.** With VNALKNLQVK [_VNALK(Methyl (K))NLQVK_] as the sequence, how does the collision cross section [2] read?
**A.** 371.4 ± 0.45 Å²

**Q.** What about the collision cross section [1] of the same sequence?
**A.** 420.52 ± 3.9 Å²

**Q.** With “LQAAYAGDKADDIQK [_LQAAYAGDK(Gluratylation)ADDIQK_]” as the sequence, how does the collision cross section [6] read?
**A.** 440.38 ± 0.95 Å²

**Q.** What about the collision cross section [7] of the same sequence?
**A.** 496.91 ± 1 Å²

**Q.** For IQTKAGEATVK [_IQTK(Succinyl)AGEATVK_], which collision cross section (charge state: 2, modification: Succinyl) is on record?
**A.** 366.8 ± 0.24 Å²

**Q.** For “YADLTEDQLPSCESLK [_Y(Phospho (Y))ADLTEDQLPSCESLK_]”, which collision cross section [8] is on record?
**A.** 458.87 Å²

**Q.** For SPDEAYAIAKK [_SPDEAYAIAK(Formyl)K_], which collision cross section [3] is on record?
**A.** 364.33 ± 1 Å²

**Q.** Which results are given for “IINEPTAAAIAYGLDKK [_IINEPTAAAIAYGLDK(Gluratylation)K_]”?
**A.** collision cross section [6]: 470.31 ± 1.8 Å²; collision cross section [7]: 565.52 ± 1.3 Å²

**Q.** Which collision cross section [2] does the source give for “VSPASSVDSNIPSSQGYKK [_VSPASSVDSNIPSSQGYK(Methyl (K))K_]” here?
**A.** 486.85 ± 1.2 Å²

**Q.** And the collision cross section [1]?
**A.** 544.11 ± 0.42 Å²

**Q.** Which results are given for “LFVGGIKEDTEEHHLR [_LFVGGIK(Acetyl (K))EDTEEHHLR_]”?
**A.** collision cross section (charge state: 2, modification: Acetyl (K)): 494.34 Å²; collision cross section (charge state: 3, modification: Acetyl (K)): 543.04 ± 0.75 Å²

**Q.** For ASEALLKQLK [_ASEALLK(Methyl (K))QLK_], which collision cross section [2] is on record?
**A.** 369.33 ± 0.7 Å²

**Q.** What about the collision cross section [1] of the same sequence?
**A.** 450.1 ± 3.1 Å²

**Q.** For “IHVQSSSDSSDEPAEKR [_IHVQSSSDSSDEPAEK(hydroxyisobutyryl)R_]”, which collision cross section [9] is on record?
**A.** 455.71 ± 0.4 Å²

**Q.** What about the collision cross section [10] of the same sequence?
**A.** 514.66 ± 3.7 Å²

**Q.** Which collision cross section [5] does the source give for “IVFSGNLFQHQEDSKK [_IVFSGNLFQHQEDSK(Trimethyl (K))K_]” here?
**A.** 536.81 ± 0.89 Å²

**Q.** With “VETTVTSLKTK [_VETTVTSLK(hydroxyisobutyryl)TK_]” as the sequence, how does the collision cross section [9] read?
**A.** 389.83 ± 0.81 Å²

**Q.** What about the collision cross section [10] of the same sequence?
**A.** 450.94 ± 1.9 Å²

**Q.** For VLSIGDGIAR [_VLS(HexNAc (ST))IGDGIAR_], which collision cross section (charge state: 2, modification: HexNAc (ST)) is on record?
**A.** 372.66 ± 0.12 Å²

**Q.** For “SEASSEFAKK [_SEASSEFAK(Trimethyl (K))K_]”, which collision cross section [4] is on record?
**A.** 361.14 ± 0.6 Å²

**Q.** And the collision cross section [5]?
**A.** 431.4 ± 4.5 Å²

**Q.** With “VLATQPGPGRGR [_VLATQPGPGR(Methyl (R))GR_]” as the sequence, how does the collision cross section (charge state: 2, modification: Methyl (R)) read?
**A.** 376.85 ± 0.74 Å²

**Q.** What about the collision cross section (charge state: 3, modification: Methyl (R)) of the same sequence?
**A.** 455.74 ± 9.5 Å²

**Q.** With “SNEEGSEEKGPEVR [_SNEEGSEEK(Trimethyl (K))GPEVR_]” as the sequence, how does the collision cross section [4] read?
**A.** 400.43 Å²

**Q.** What about the collision cross section [5] of the same sequence?
**A.** 464.15 ± 1.8 Å²

**Q.** Which results are given for AYDATHLVK [_AY(Nitro (Y))DATHLVK_]?
**A.** collision cross section (charge state: 2, modification: Nitro (Y)): 358.23 ± 0.55 Å²; collision cross section (charge state: 3, modification: Nitro (Y)): 417.35 Å²

**Q.** Which collision cross section (charge state: 2, modification: Butyryl) does the source give for LEKTIDDLEEK [_LEK(Butyryl)TIDDLEEK_] here?
**A.** 409.44 ± 0.57 Å²

**Q.** Which results are given for “DSSPTTNSKLSALQR [_DSSPTTNSK(Biotin)LSALQR_]”?
**A.** collision cross section (charge state: 2, modification: Biotin): 447.16 ± 2.3 Å²; collision cross section (charge state: 3, modification: Biotin): 519.36 ± 0.34 Å²

**Q.** For “SEASSEFAKK [_SEASSEFAK(Gluratylation)K_]”, which collision cross section [6] is on record?
**A.** 358.01 ± 0.65 Å²

**Q.** With “YIGTGHADTTK [_Y(Phospho (Y))IGTGHADTTK_]” as the sequence, how does the collision cross section [8] read?
**A.** 372.65 ± 0.75 Å²
